B1: chimeric antibody Ch2G3 (m2G3 variable regions with human IgG1 and human Kappa constant regions) (antibody, from another filing, V domains shown)
VH: QVQLKESGPGLVASSQSLSITCTVSGFSLSRYSVHWVRQPPGKGLEWLGMIWDGGNTDYNSALKSRLSISKDNSKSQVFLKMNSLQTDDTAMYYCARNPLYFSYAMDYWGQGTSVTVSS
VL: DIQMTQSTSSLSASLGDRVTISCRASQDISNYLNWYQQKPDGTVKLLIIYTSRLQSGVPSRFSGSGSGTDYSLTISNLEQEDIATYFCQQVNTFPFTFGSGTKLEIK
B2: 2G3 (humanized anti-OX40 antibody, hu2G3 VH1.1 + hu2G3 VL1) (antibody, human IgG1, kappa, V domains shown)
VH: QVQLQESGPGLVKPSETLSLTCTVSGYSISRYSVHWVRQPPGKGLEWIGMIWDGGNTDYNAALKSRFTISRDNAKNTLYLQMNSLRAEDTAVYYCARNPLYFSYAMDYWGQGTLVTVSS
VL: DIQMTQSPSSLSASVGDRVTITCRASQDISNYLNWYQQKPDQSPKLLIIYTSRLQSGVPSRFSGSGSGTDYTLTISSLQPEDFATYYCQQVNTFPFTFGQGTKLEIKR
notes: Format is IgG1/kappa; also called drug A; humanized 2G3 antibody

Columns and labels:
[1] = biological target: human OX40 on Jurkat-NF-Kb luc-hOX40 cells (human) (UniProt P43489); experiment: cell-based or functional assay
[2] = biological target: T1, human OX40 on Jurkat-NF-Kb luc-hOX40 cells (human, UniProt P43489 29-277); experiment: cell-based or functional assay
T1 sequence (looked up): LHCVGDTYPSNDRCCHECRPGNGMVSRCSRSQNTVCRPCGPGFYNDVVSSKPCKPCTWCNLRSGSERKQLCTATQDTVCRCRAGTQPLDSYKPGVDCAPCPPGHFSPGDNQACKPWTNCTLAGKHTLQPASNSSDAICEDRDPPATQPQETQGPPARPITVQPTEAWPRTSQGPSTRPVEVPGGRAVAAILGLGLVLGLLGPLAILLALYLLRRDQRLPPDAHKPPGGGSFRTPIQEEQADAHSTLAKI

[3] = biological target: T2, human OX40-His protein (Sino Biological 10481-H08H) (human, UniProt P43489 29-216); experiment: SPR, Biacore T200; antibody amine-coupled to a CM5 chip, human OX40-His as analyte, 1:1 Langmuir model
T2 construct: Bought protein, used as the analyte in Biacore; not shown: His tag
T2 sequence (looked up): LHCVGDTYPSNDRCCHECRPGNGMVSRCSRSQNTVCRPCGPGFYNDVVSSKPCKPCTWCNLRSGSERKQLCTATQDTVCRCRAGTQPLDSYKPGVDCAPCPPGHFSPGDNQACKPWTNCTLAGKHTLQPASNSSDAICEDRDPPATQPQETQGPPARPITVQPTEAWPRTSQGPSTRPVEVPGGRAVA

[4] = biological target: T3, human OX40-Fc, biotin-labelled (OX40 Leu 29-Ala 216, Accession NP_003318, fused with Fc); Acro Biosystems … (human, UniProt P43489 29-216, labelled with biotin (sites not given)); experiment: blocking ELISA: OX40 ligand coated on the plate, serially diluted 2G3 pre-incubated with biotinylated human OX40-Fc, SA-HRP detection; competitor OX40L
T3 construct: range 29-216; Bought from Acro Biosystems and expressed in HEK293; also called human Bio-OX40-FC; not shown: Fc tag of the bought protein
T3 sequence (looked up): T2 sequence (looked up)

| Binder | EC50(nM), luciferase reporter gene (RLU) in Jurkat-NF-Kb luc-hOX40 cells mixed with Raji cells on an anti-CD3 coated plate [1] [nM] | EC50(nM), luciferase reporter gene (RLU) in Jurkat-NF-Kb luc-hOX40 cells mixed with Raji cells on an anti-CD3 coated plate [2] [nM] | Kd [3] [nM] | koff [3] [s⁻¹] | kon [3] [M⁻¹ s⁻¹] | IC50 [4] [nM] |
| --- | --- | --- | --- | --- | --- | --- |
| B1 | 0.637 | – | – | – | – | – |
| B2 | – | 2.29 | 4.63 | 0.00202 | 437000 | 1.88 |
